The results in this text go back to publication PMC4305291.

This experiment has as its target integrin αIIb_W968C (human). Briefly: cross-linking; disulfide between engineered cysteines in cells; S35-labelled CHO cells lysed, immunoprecipitated with anti-αIIb mAb 10E5 and protein G-Sepharose, SDS-PAGE with or without 2 mM DTT, radioautography.

In the case of “integrin β3_I693C (from UniProt P05106 27-788) (natural protein)”, the efficiency of disulfide formation is 100%.
